Tests used:
EGFR-His = target: T1, EGFR-His (UniProt P00533 25-645); assay: ELISA, coated His-tagged EGFR ECD, anti-human Fc-HRP
T1 construct: range 25-645; also called His-tagged EGFR
Experimental: (§1) The His-tagged EGFR or HER3 proteins were used as antigens and coated onto polystyrene microtiter plates at a concentration of 2 μg/ml diluted in PBS. Remaining binding sites were blocked with PBS, 2% skimmed milk (MPBS). […] After washing, bound antibodies were detected with an HRP-conjugated anti-human Fc antibody and TMB, H₂O₂ as substrate. […] Simultaneous binding to both antigens, EGFR and HER3, was confirmed by a second binding ELISA analysis. As first antigen, EGFR-Fc fusion protein was coated onto polystyrene microtiter plates at 2 μg/ml in PBS. Remaining binding sites were blocked with PBS, 2% skimmed milk (MPBS). […] After washing, the second antigen, HER3-His (300 nM diluted in MPBS), was added to the plates. After washing, bound HER3-His (second antigen) was detected with an HRP-conjugated anti-His antibody and TMB, H₂O₂ as substrate.

HER3-His [1] = target: T2, HER3-His (UniProt P21860 21-643); assay: simultaneous binding ELISA: coated EGFR-Fc, Db titrated, HER3-His 300 nM added, anti-His-HRP
T2 construct: range 21-643; also called His-tagged HER3; second antigen
Experimental: as §1

HER3-His [2] = target: T2, HER3-His; assay: ELISA, coated His-tagged HER3 ECD, anti-human Fc-HRP
Experimental: as §1

HER3-His [3] = target: T2, HER3-His; assay: simultaneous binding, flow cytometry: molecule titrated on CD3-positive Jurkat cells, HER3-His 300 nM added, PE anti-His
Experimental: (§2) Simultaneous binding of both antigens was tested via flow cytometry using CD3-expressing Jurkat cells. A titration of bispecific Db3-43xhuU3-EHD2-Fab3-43-Fcₖᵢₕ was incubated with the cells for one hour at RT. After washing cells twice with PBA, the second antigen, HER3-His, was added to the cells (300 nM) and incubated for one additional hour at RT. Cells were washed twice using PBA. Bound HER3-His was detected using a PE-labeled anti-His antibody. After washing, median fluorescence intensity (MFI) was measured with a Milltenyi MACSQuant® Analyzer 10. Relative MFI (to unstained cells) were calculated by MACSQuant® software and Excel.
(§3) Binding studies of Db3-43xhuU3-EHD2-scFv3-43-Fcₖᵢₕ to HER3-expressing (SKBR3; Table 5) and CD3-expressing cells (Jurkat) were analyzed via flow cytometry. Adherent SKBR3 cells were washed with PBS and shortly trypsinized at 37° C. Trypsin was quenched with FCS containing medium and removed by centrifugation (500×g, 5 minutes). Jurkat cells, which are suspension cells, were directly used without trypsin treatment. […] Bound antibodies were detected using PE-labeled anti-human Fc secondary antibody, which was incubated for another hour at 4° C. After washing, median fluorescence intensity (MFI) was measured with a Milltenyi MACSQuant® Analyzer 10. Relative MFI (to unstained cells) were calculated by MACSQuant® software and Excel. […]

CD3 (on Jurkat cells) = target: T3, CD3 (on Jurkat cells) (UniProt P07766 23-207); assay: flow cytometry on CD3-expressing Jurkat cells
T3 construct: whole, on cells; CD3 is a complex of several chains; only CD3 is printed; also called CD3-positive Jurkat cells; CD3-expressing cells (Jurkat)
T3 sequence (P07766 23-207): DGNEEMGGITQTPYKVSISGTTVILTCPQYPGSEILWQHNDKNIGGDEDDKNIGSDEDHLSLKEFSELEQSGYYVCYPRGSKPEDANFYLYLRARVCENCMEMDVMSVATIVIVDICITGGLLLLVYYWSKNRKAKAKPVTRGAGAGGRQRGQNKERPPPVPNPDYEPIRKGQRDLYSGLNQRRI
Experimental: as §2, §3

HER3 (on tumor cells) = target: T4, HER3 (on tumor cells) (UniProt P21860 20-1342, limits assumed); assay: flow cytometry on HER3-expressing SKBR-3 cells
T4 construct: whole, on cells; also called HER3 on MCF-7, SKBR-3 (SKBR3) and FaDu cells

TNFR2 (on Kym-1 cells) = target: T5, TNFR2 (on Kym-1 cells) (UniProt P20333 23-461, limits assumed); assay: cell-based or functional assay
T5 sequence (looked up): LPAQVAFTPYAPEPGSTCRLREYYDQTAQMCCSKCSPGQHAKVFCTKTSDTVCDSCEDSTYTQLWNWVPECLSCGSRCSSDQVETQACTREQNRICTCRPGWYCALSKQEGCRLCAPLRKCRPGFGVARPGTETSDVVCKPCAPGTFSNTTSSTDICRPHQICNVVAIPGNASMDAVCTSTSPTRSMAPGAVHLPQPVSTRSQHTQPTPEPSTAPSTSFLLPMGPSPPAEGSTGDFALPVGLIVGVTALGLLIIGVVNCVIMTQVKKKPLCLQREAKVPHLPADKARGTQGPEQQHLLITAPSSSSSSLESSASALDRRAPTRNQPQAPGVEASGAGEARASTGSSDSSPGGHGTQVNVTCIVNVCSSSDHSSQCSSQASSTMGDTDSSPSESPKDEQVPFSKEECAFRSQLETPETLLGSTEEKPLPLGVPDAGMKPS

[4] = target: T6, TNFR2-Fc (Enbrel) fusion protein (UniProt P20333 23-257); assay: ELISA, coated TNFR2-Fc (Enbrel), anti-human Fab-HRP
T6 construct: extracellular domain; Commercial product (Enbrel) used as coated antigen
T6 sequence (looked up): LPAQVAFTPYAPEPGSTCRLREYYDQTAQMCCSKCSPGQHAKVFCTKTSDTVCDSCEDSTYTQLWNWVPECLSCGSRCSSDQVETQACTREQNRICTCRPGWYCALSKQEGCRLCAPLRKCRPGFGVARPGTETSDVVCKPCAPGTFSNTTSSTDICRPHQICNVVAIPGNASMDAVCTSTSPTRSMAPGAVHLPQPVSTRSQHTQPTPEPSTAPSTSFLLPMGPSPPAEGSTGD
Experimental: Bound protein was detected with an HRP-conjugated anti-human Fab antibody. […] Optical density was measured at 450 nm.

B1: Db3-43xhu225-EHD2-Fc (bispecific antibody)
heavy: EVQLVESGGGLVQPGGSLRLSCAASGFSLTNYGVHWVRQAPGKGLEWLGVIWSGGNTDYNTPFTSRFTISRDNSKNTLYLQMNSLRAEDTAVYYCARALTYYDYEFAYWGQGTTVTVSSGGGGSQAGLTQPPAVSVAPGQTASITCGRDNIGSRSVHWYQQKPGQAPVLVVYDDSDRPAGIPERFSGSNYENTATLTISRVEAGDEADYYCQVWGITSDHVVFGGGTKLTVLASDFTPPTVKILQSSCDGGGHFPPTIQLLCLVSGYTPGTINITWLEDGQVMDVDLSTASTTQEGELASTQSELTLSQKHWLSDRTYTCQVTYQGHTFEDSTKKCADSNDKTHTCPPCPAPPVAGPSVFLFPPKPKDTLMISRTPEVTCVVVDVSHEDPEVKFNWYVDGVEVHNAKTKPREEQYNSTYRVVSVLTVLHQDWLNGKEYKCKVSNKGLPSSIEKTISKAKGQPREPQVYTLPPSRDELTKNQVSLTCLVKGFYPSDIAVEWESNGQPENNYKTTPPVLDSDGSFFLYSKLTVDKSRWQQGNVFSCSVMHEALHNHYTQKSLSLSPGK
light: QVQLQQSGPGLVKPSQTLSLTCAISGDSVSSNRAAWNWIRQSPSRGLEWLGRTYYRSKWYNDYAQSLKSRITINPDTPKNQFSLQLNSVTPEDTAVYYCARDGQLGLDALDIWGQGTMVTVSSGGGGSDIQLTQSPSFLSASVGDRVTITCRASQSIGTNIHWYQQKPGKAPKLLIKYASESISGVPSRFSGSGSGTEFTLTISSLQPEDFATYYCQQNNNWPTTFGAGTKLEIKRTDFTPPTVKILQSSCDGGGHFPPTIQLLCLVSGYTPGTINITWLEDGQVMDVDLSTASTTQEGELASTQSELTLSQKHWLSDRTYTCQVTYQGHTFEDSTKKCADSN
notes: homodimeric Fc part; also called bispecific, tetravalent diabody fusion protein using EHD2
EGFR-His
  EC50: 0.28 nM
HER3-His [1]
  EC50: 1.4 nM
HER3-His [2]
  EC50: 0.35 nM

B2: Db3-43xhu225-het1EHD2-Fc (bispecific antibody)
heavy: EVQLVESGGGLVQPGGSLRLSCAASGFSLTNYGVHWVRQAPGKGLEWLGVIWSGGNTDYNTPFTSRFTISRDNSKNTLYLQMNSLRAEDTAVYYCARALTYYDYEFAYWGQGTTVTVSSGGGGSQAGLTQPPAVSVAPGQTASITCGRDNIGSRSVHWYQQKPGQAPVLVVYDDSDRPAGIPERFSGSNYENTATLTISRVEAGDEADYYCQVWGITSDHVVFGGGTKLTVLASDFTPPTVKILQSSCDGGGHFPPTIQLLCLVSGYTPGTINITWLEDGQVMDVDLSTASTTQEGELASTQSELTLSQKHWLSDRTYTCQVTYQGHTFEDSTKKSADSNDKTHTCPPCPAPPVAGPSVFLFPPKPKDTLMISRTPEVTCVVVDVSHEDPEVKFNWYVDGVEVHNAKTKPREEQYNSTYRVVSVLTVLHQDWLNGKEYKCKVSNKGLPSSIEKTISKAKGQPREPQVYTLPPSRDELTKNQVSLTCLVKGFYPSDIAVEWESNGQPENNYKTTPPVLDSDGSFFLYSKLTVDKSRWQQGNVFSCSVMHEALHNHYTQKSLSLSPGK
light: QVQLQQSGPGLVKPSQTLSLTCAISGDSVSSNRAAWNWIRQSPSRGLEWLGRTYYRSKWYNDYAQSLKSRITINPDTPKNQFSLQLNSVTPEDTAVYYCARDGQLGLDALDIWGQGTMVTVSSGGGGSDIQLTQSPSFLSASVGDRVTITCRASQSIGTNIHWYQQKPGKAPKLLIKYASESISGVPSRFSGSGSGTEFTLTISSLQPEDFATYYCQQNNNWPTTFGAGTKLEIKRTDFTPPTVKILQSSSDGGGHFPPTIQLLCLVSGYTPGTIQITWLEDGQVMDVDLSTASTTQEGELASTQSELTLSQKHWLSDRTYTCQVTYQGHTFEDSTKKCADSN
notes: also called Db3-43xhu225-hetEHD2-Fc
EGFR-His
  EC50: 0.24 nM
HER3-His [1]
  EC50: 0.56 nM
HER3-His [2]
  EC50: 0.34 nM

B3: Db3-43xhuU3-EHD2-Fab3-43-Fckih (bispecific antibody)
light 1: not shown
heavy 1: QVQLVQSGAEVKKPGSSVKVSCKASGGTFSGYTMNWVRQAPGQGLEWMGLINPYKGVSTYNGKFKDRVTITADKSTSTAYMELSSLRSEDTAVYYCARSGYYGDSDWYFDVWGQGTLVTVSSGGGGSQAGLTQPPAVSVAPGQTASITCGRDNIGSRSVHWYQQKPGQAPVLVVYDDSDRPAGIPERFSGSNYENTATLTISRVEAGDEADYYCQVWGITSDHVVFGGGTKLTVLASDFTPPTVKILQSSCDGGGHFPPTIQLLCLVSGYTPGTINITWLEDGQVMDVDLSTASTTQEGELASTQSELTLSQKHWLSDRTYTCQVTYQGHTFEDSTKKCADSNDKTHTCPPCPAPPVAGPSVFLFPPKPKDTLMISRTPEVTCVVVDVSHEDPEVKFNWYVDGVEVHNAKTKPREEQYNSTYRVVSVLTVLHQDWLNGKEYKCKVSNKGLPSSIEKTISKAKGQPREPQVCTLPPSRDELTKNQVSLSCAVKGFYPSDIAVEWESNGQPENNYKTTPPVLDSDGSFFLVSKLTVDKSRWQQGNVFSCSVMHEALHNHYTQKSLSLSPGK
heavy 2: QVQLQQSGPGLVKPSQTLSLTCAISGDSVSSNRAAWNWIRQSPSRGLEWLGRTYYRSKWYNDYAQSLKSRITINPDTPKNQFSLQLNSVTPEDTAVYYCARDGQLGLDALDIWGQGTMVTVSSASTKGPSVFPLAPSSKSTSGGTAALGCLVKDYFPEPVTVSWNSGALTSGVHTFPAVLQSSGLYSLSSVVTVPSSSLGTQTYICNVNHKPSNTKVDKKVEPKSCGTDKTHTCPPCPAPPVAGPSVFLFPPKPKDTLMISRTPEVTCVVVDVSHEDPEVKFNWYVDGVEVHNAKTKPREEQYNSTYRVVSVLTVLHQDWLNGKEYKCKVSNKGLPSSIEKTISKAKGQPREPQVYTLPPCRDELTKNQVSLWCLVKGFYPSDIAVEWESNGQPENNYKTTPPVLDSDGSFFLYSKLTVDKSRWQQGNVFSCSVMHEALHNHYTQKSLSLSPGK
light 2: QAGLTQPPAVSVAPGQTASITCGRDNIGSRSVHWYQQKPGQAPVLVVYDDSDRPAGIPERFSGSNYENTATLTISRVEAGDEADYYCQVWGITSDHVVFGGGTKLTVLGQPKAAPSVTLFPPSSEELQANKATLVCLISDFYPGAVTVAWKADSSPVKAGVETTTPSKQSNNKYAASSYLSLTPEQWKSHRSYSCQVTHEGSTVEKTVAPTECS
notes: Four different polypeptides; also called bispecific, trivalent Diabody-Fab fusion protein targeting HER3 (3-43) and CD3 (huU3)
HER3-His [3]
  EC50: 13.8 nM
CD3 (on Jurkat cells)
  EC50: 9.5 nM
HER3 (on tumor cells)
  EC50: 0.03 nM

B4: Db3-43xhuU3-EHD2-scFv3-43-Fckih (bispecific antibody)
light: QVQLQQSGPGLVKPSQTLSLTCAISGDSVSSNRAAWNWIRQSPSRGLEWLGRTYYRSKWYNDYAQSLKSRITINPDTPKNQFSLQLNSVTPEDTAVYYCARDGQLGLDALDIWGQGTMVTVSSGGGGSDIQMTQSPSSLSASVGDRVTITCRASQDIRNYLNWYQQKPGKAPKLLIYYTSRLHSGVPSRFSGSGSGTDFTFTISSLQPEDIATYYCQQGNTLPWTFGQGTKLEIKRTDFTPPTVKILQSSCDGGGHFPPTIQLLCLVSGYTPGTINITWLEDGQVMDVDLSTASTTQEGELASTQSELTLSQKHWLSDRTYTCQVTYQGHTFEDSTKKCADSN
heavy: QVQLVQSGAEVKKPGSSVKVSCKASGGTFSGYTMNWVRQAPGQGLEWMGLINPYKGVSTYNGKFKDRVTITADKSTSTAYMELSSLRSEDTAVYYCARSGYYGDSDWYFDVWGQGTLVTVSSGGGGSQAGLTQPPAVSVAPGQTASITCGRDNIGSRSVHWYQQKPGQAPVLVVYDDSDRPAGIPERFSGSNYENTATLTISRVEAGDEADYYCQVWGITSDHVVFGGGTKLTVLASDFTPPTVKILQSSCDGGGHFPPTIQLLCLVSGYTPGTINITWLEDGQVMDVDLSTASTTQEGELASTQSELTLSQKHWLSDRTYTCQVTYQGHTFEDSTKKCADSNDKTHTCPPCPAPPVAGPSVFLFPPKPKDTLMISRTPEVTCVVVDVSHEDPEVKFNWYVDGVEVHNAKTKPREEQYNSTYRVVSVLTVLHQDWLNGKEYKCKVSNKGLPSSIEKTISKAKGQPREPQVCTLPPSRDELTKNQVSLSCAVKGFYPSDIAVEWESNGQPENNYKTTPPVLDSDGSFFLVSKLTVDKSRWQQGNVFSCSVMHEALHNHYTQKSLSLSPGK
chain: QVQLQQSGPGLVKPSQTLSLTCAISGDSVSSNRAAWNWIRQSPSRGLEWLGRTYYRSKWYNDYAQSLKSRITINPDTPKNQFSLQLNSVTPEDTAVYYCARDGQLGLDALDIWGQGTMVTVSSGGGGSGGGGSGGGGSQAGLTQPPAVSVAPGQTASITCGRDNIGSRSVHWYQQKPGQAPVLVVYDDSDRPAGIPERFSGSNYENTATLTISRVEAGDEADYYCQVWGITSDHVVFGGGTKLTVLAAADKTHTCPPCPAPPVAGPSVFLFPPKPKDTLMISRTPEVTCVVVDVSHEDPEVKFNWYVDGVEVHNAKTKPREEQYNSTYRVVSVLTVLHQDWLNGKEYKCKVSNKGLPSSIEKTISKAKGQPREPQVYTLPPCRDELTKNQVSLWCLVKGFYPSDIAVEWESNGQPENNYKTTPPVLDSDGSFFLYSKLTVDKSRWQQGNVFSCSVMHEALHNHYTQKSLSLSPGK
notes: Three different polypeptides; also called bispecific, trivalent Diabody-scFv fusion protein targeting HER3 (3-43) and CD3 (huU3)
HER3-His [3]
  EC50: 9 nM
CD3 (on Jurkat cells)
  EC50: 8.1 nM
HER3 (on tumor cells)
  EC50: 0.037 nM

B5: hu225-IgG (antibody, V domains shown)
VH: EVQLVESGGGLVQPGGSLRLSCAASGFSLTNYGVHWVRQAPGKGLEWLGVIWSGGNTDYNTPFTSRFTISRDNSKNTLYLQMNSLRAEDTAVYYCARALTYYDYEFAYWGQGTTVTVSS
VL: DIQLTQSPSFLSASVGDRVTITCRASQSIGTNIHWYQQKPGKAPKLLIKYASESISGVPSRFSGSGSGTEFTLTISSLQPEDFATYYCQQNNNWPTTFGAGTKLEIK
EGFR-His
  EC50: 0.23 nM

B6: anti-TNFR2 IgG (antibody, V domains shown)
VH: QVQLQQSGAEVKKPGSAVKVSCKASGGTFSSYAISWVRQAPGQGLEWMGRIIPILGIANYAQKFQGRVTITADKSTSTAYMELSSLRSEDTAVYYCARDGLGDAFDIWGQGTMVTVSS
VL: QSALTQPRSVSGSPGQSITISCTGTSSDVGGYNYVSWYQQHPGKAPKLMIYDVSNRPSGVSNRFSGSKSGNTASLTISGLQAEDEADYYCSSYTSSSTLVVFGGGTKLTVL
TNFR2 (on Kym-1 cells)
  EC50 of cell death induction, Kym-1 cells, MTT assay after 24 hours: ~30 nM
[4]
  EC50: 0.7 nM

From US20210002376A1 (UNIVERSIT T STUTTGART, published 2021)
